Targets include GST-p38 (UniProt Q16539); GST-JNK2 (UniProt P45984); GST-cJun(1-79) (UniProt P05412).
The target of a further data set is T1, GST-ATF2 (UniProt P15336).
T1 sequence: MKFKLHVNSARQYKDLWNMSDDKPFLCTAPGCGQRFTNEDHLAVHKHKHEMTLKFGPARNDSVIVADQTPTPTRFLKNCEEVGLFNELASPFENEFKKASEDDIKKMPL

GST-p38, sequence (Q16539 whole entry): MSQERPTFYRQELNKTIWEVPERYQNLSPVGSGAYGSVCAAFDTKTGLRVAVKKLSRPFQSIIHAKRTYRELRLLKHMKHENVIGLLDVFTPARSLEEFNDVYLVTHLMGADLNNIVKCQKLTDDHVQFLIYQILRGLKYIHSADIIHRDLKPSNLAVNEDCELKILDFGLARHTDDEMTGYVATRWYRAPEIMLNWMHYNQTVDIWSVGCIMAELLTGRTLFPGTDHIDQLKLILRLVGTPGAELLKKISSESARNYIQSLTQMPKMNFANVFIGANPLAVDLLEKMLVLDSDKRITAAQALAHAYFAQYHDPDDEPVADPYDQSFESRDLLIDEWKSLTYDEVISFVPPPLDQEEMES
GST-cJun(1-79), sequence (P05412 1-79): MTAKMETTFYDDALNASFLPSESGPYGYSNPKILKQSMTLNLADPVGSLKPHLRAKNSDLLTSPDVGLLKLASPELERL
GST [GST: P08515], sequence (P08515 whole entry): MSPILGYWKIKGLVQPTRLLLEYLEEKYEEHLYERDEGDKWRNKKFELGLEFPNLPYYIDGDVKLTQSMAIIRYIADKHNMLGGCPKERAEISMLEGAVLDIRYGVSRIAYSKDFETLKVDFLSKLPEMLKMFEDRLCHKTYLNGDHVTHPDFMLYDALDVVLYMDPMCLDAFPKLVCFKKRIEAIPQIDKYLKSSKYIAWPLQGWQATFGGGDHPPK

Turning to 3xHA-MEK6, the “phosphorylation of GST-p38 in immune complex kinase assay (HeLa lysates, anti-HA 12CA5 immunoprecipitate)” value in the data set with GST-p38 is “MEK6 activation by anisomycin as measured by its ability to phosphorylate p38, was observed as early as 10 min after treatment”.
In the case of GST-MEK6, the “phosphorylation of GST-ATF2 in coupled in vitro kinase assay” value in the data set with GST-ATF2 is recorded as “ATF2 was not directly phosphorylated by MEK6”. Moreover, the “phosphorylation of substrate in in vitro kinase assay ([γ-32P]ATP, SDS-PAGE, autoradiography)” value with GST-JNK2, in the data set on GST [GST: P08515], with GST-p38 and with His-ERK1[K52R] was “MEK6 efficiently phosphorylated p38 but none of the other substrates” throughout. Also, the “phosphorylation of GST-Jun(1-79) in coupled in vitro kinase assay” value with GST-cJun(1-79) is on record as “MEK6 did not cause increased phosphorylation of Jun (GST-Jun(1-79) ...) either directly or in combination with JNK2”.

These data come from patent US20040235112.
